Assay results taken from the supplement of paper PMC7125110.
± gives the standard error. Variants at the floor of the assay were thinned out.

B1: glmS ribozyme (parent)
chain: AUAAAAGCGCCAGAACUACAGAAAUGUAGUUGACGAGGAGGAGGUUUAUCGAAUUUUCGGCGGAUGCCUCCAAA

Variants of: B1
Experiment: self-cleavage kobs at 640 uM GlcN6P; higher = faster cleavage; RNA array
Conditions: with glucosamine-6-phosphate
Outline: (§1)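 Glucosamine-6-phosphate, from 40 μM to 10 mM in HEPES/KCl/Mg(OAc)2 buffer, was flowed over sequenced MiSeq chips carrying barcoded ribozyme variants transcribed in situ by E. coli RNA polymerase. A hybridised Cy3 probe tracked the variants at 37 °C as tiles were imaged over ~14 h. kobs, kcat and KM were obtained by fitting normalised per-tile medians to exponential decays and then applying weighted Michaelis–Menten fits across concentrations.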

Variant | self-cleavage kobs at 640 uM GlcN6P [s⁻¹]
AUAAAAGUGCCAGCACUACAGAAAUGUAGUUAACGAGGAGGAGGUUUAUCGAAUUUUCGGCGGAUGCCUCCAAA | < 1e-05
AUAAAAUCGCCAGAACUACAGAAAUGUAGUUGACGAGGGGGAGGUUCAUCGAAUUUUCCGCGGAUGCCUCCAAA | < 1e-05
AUAAAAGGGCUAGAUCUACAGAAAUGUAGUUGACGAGGAGGAGGUUUAUCGAAUUUGCGGCGGAUGCCUCCAAA | < 1e-05
AUAAAAGCGCCAGAAGUACAGAAAUGUAGUUGACGAGGAGGAGGUUUAUCAAAUUUUCGGCGGUUGCCUCCAAA | < 1e-05
AUAAAAGCGCCAGAACUACAGAAAUGUAGUUGACGAGGAGGAACUUUAUCGAAUUUUCGGCGGAUGACUACAAA | < 1e-05
AUAAAAGCGCCAGAACUACAGAAAUGUAGUUGACGAGAAGGAGCUUUAUCGAAUUUUCGGCGGAUGUCUCAAAA | < 1e-05
AUAAAAGCGCCAGAACUACAGAAAUGUAGUUGACGAGGCGGAGGUUUAUCGAAUUCUCGGCGGAUGCCUCCAAA | 0.00018 ± 3.3e-05
AUAAAAGCGCCAUAACUACAGAAAUGUAGUCGACGAGGAGAAGGUUUAUCGAAUUUUCGGCGGAUGCCUCCAAA | < 1e-05
AUAAAAGCGCCAGAACUACAGAAAUGUAGUUGACGAGGAGGAGGUUUAUCGGAUUUUCGGGGGAUGCCACCAAA | 0.000109 ± 4.4e-05
AUAAAAGGGCUAGAUCUACAGAAAUGUACUUGACGAGGAGUAGGUUUAUCGAAUUUUCGGCGGAUGCCUCCAAA | < 1e-05
AUAAAAGCGCCAGAACUACAGAAAUGUAGUUGACGAGGAGAGGGGUUAUCGAAUUUUCGGCGGAUGCCUCCAAA | 0.0066 ± 0.002
AUAAAAGCGCCAGAACUACAGAAAUGUAGUUGUUGAGGAGGAGGUUUAUCGAAUUUUCGGCGGAUGCCUGCAAA | 0.00168 ± 0.00079
AUAAAAGCGCCAGAACUACAGAAAUGUAGUUGACGAUGAGGAGGUUUAUCGAAUUUUCGGCGGAACCCUCCAAA | < 1e-05
AUAAAAGCGCCAGAACUACAGAAAUGUAGUUAACGAGGAGGAAGUUUAUCGAAUUUGCGGCGGAUGCCUCCAAA | < 1e-05
AUAAAAUCGCCUGAACUACAGAAAUGUAGUUGACGAGGAUGAGGUUUAUCGAAUCUUCGGCGGAUGCCUCAAAA | < 1e-05
AUAAAAGCGCCAGAACUACAGAAAUGUAGUUGACGAAGAGGAGGUUUAUCGAAUUUUCGGAGGAUGCCUUCAAA | < 1e-05
AUAAAAGCGCCAGAACUACAGAAAUGUAGUUGACGAGGAGGAGGUUGAUCGAAUUUUCGGCGGAUGCCUUGAAA | 0.000118 ± 2.3e-05
AUAAAAGCGCCAGAACUACAGAAAUGUAGUUGACGACGGGGAGGAUUAACGAAUUUUCGGCGGAUGCCUCCAAA | < 1e-05
AUAAAAGCGCCAGUACUACAGAAAUGUAGUUGACGAGGAGGAGGUUUAUCGAAUUUUCGGCGGAUGUGUCCAAA | 0.000113 ± 3.4e-05
AUAAAAGCGCAAGAACUACAGAAAUGUAGUUGACGACGAGGAGGUUUAUCGAAUUUUCGGCGGAGGCCUCCAAA | < 1e-05
AUAAAAGCGCUAGAAAUACAGAAAUGUAGAUCACGAGGAGGAGGUUUAUCGAAUUUUCGGCGGAUGCCGCCAAA | 0.000926 ± 0.00019
AUAAAAGCGCCAGAUCUACAGAAAUGUAGUUAACGAGGAGGAGGUGUAUGGAAUUUUCGGCGGAUGCCUCCAAA | 8.2e-05 ± 2.3e-05
AUAAAAGCGCCAGAACUACAGAAAUGUAGUUGCCGAGGAGGUGGUUUAUCGAAUUUUCGGCGGAUGACUCCAAA | < 1e-05
AUAAAAGCGCCAGAACUACAGAAAUGUAGGUGACGAGGAAGAGGUUUAUCGAAUUGUCGGCGGAUGCCUCCAAA | 6.26e-05 ± 2e-05
AUAAAAGCGCCAGAACUACAGAAAUGUAGUUGACGAGGAGGAGGUGUAUCUAAUUUUCGGCGGAUGCCUCUAAA | < 1e-05

Variant | self-cleavage kobs at 640 uM GlcN6P [s⁻¹]
AUAAAAGCGCCAGACCUACAGAAAUGUAGUCGGCGAGAAGGAGGUUUAUCGAAUUUUCGGCGGAUGCCUCCAAA | < 1e-05
AUAAAAGCGCCGGAACUACAGAAAUGUAGUUGACGAGGAGGAGGUUGAUAGAAUUUUCGGCGGAUGCGUCCAAA | 0.000111 ± 4.4e-05
AUAAAGGCGCCAGAACUACAGAAAUGUAGUUGACGAUGAGGAGGUUGAUGGAAUUUUGGGCGGAUGACUCCAAA | 7e-05 ± 2.9e-05
AUAAAAGCGCCAGAAUUACAGAAAUGUAGUUUAGGAGGAGGAGGUUUAUCGACUUUUCGGCGGAUGCCUCCAAA | < 1e-05
AUAAAAGCGCCCGAACUACAGAAAUGUAGUUGACGAGGAGGAGGUUCAUCGAAUUUUCGUCGGAUGCCUCCAAA | < 1e-05
AUAAAAUCGCCAGAAUUACAGAAAUGUAGGUGACGAGGAGGAGGUUUAUCGAAUUUUCGGCGGAUGCCUCCAAA | < 1e-05
AUAAAAGCGCCAGAACUACAGAAAUGUAGUUGACGAGGAGGAUGUUUAUCGAAGUUUAGGCGGAUGUCUCCAAA | < 1e-05
AUAAAAGCGCCGGAACUACAGAAAUGUAGUUGACGAGGCGGCGGUUUAUCGAAUUUUCGGCGGAUGCCUCCAAA | < 1e-05
AUAAAAGCGCCAGCACUACAGAAAUGUAGUUGACGAGGAGGAGCUUUAUCGAAUCUUCGGCGGAUGCCUCCAAA | < 1e-05
AUAAAAGCGGCCAGACUACAGAAAUGUAGUUGACGAGGUGGAGGUUUAUCGAAUUUUCGGCGGAUGCCUGCAAA | < 1e-05
AUAAAGGCGCCAGAAGUACAGAAAUGUAGUUAACGAGGAGGAGGUUUAUCGAAUUUUCGGCGGAUGCCUCCAAA | < 1e-05
AUAAAAGCGCGAGAACUACAGAAAUGUAGAUGCCGAGGAGGAGGUUUAUCGAAUUUUCGGCGGAUGCCUCCAAA | < 1e-05
AUAAAAGCGCCAGAUCUACAGAAAUGUCGUUGUCGAGGAGGAGGUUUAUCGAAUUUUCGGCGGAUGCCUCCAAA | < 1e-05
AUAAAUGCGCCAGAACUACAGAAAUGUAGUUGACGAGGAGGAGGUUUAUCGAAUUUUCGGGGGAUGACUCCAAA | 0.000106 ± 3.9e-05
AUAAAAGCGCCAAAACUACAGAAAUGUAGUUGACGAGGAGGAGGUUUAUCGAACUUUCGGCGGAUGCCUUCAAA | 9.94e-05 ± 2.2e-05
AUAAAAGCGCCAGAACUACAGAAAUGUAGUUGACGAUCAGGAGGUUUAGCGAAUUGUCGGCGGAUGCCUCCAAA | < 1e-05
AUAAAAGCGCCAUAACUACAGAAAUGUAGUUGACGAGGAAGACGUUUACCGAAUUUUCGGCGGAUGCGUCCAAA | < 1e-05
AUAAAAGCGCCAGAACUACAGAAAUGUAGAUGACGAGGAGGAGGUUUAUCUACUUUUCACCGGAUGCCUGCAAA | < 1e-05
AUAAAAGCGCCAGAACUACAGAAAUGUAGUUGACGAAGAGGAGGUUUAUCGAACUUUCGGCGGAUGCCUUCAAA | 0.000626 ± 0.00016
AUAAAAGCGCCAGAACUACAGAAAUGUAGUUGACGAGGAGGUGCUUUAUCGCAUUUGCGGCGGAAGCCCCCAAA | < 1e-05
AUAAAAGCUCCAGAACUACAGAAAUGUACUUGACGAGGAGAAGGUUUAUCGAAUUUUCGGCGGAUGCCUCCAAA | < 1e-05
AUAAAAGCGCCAGAUCUACAGAAAUGUAGUUGACGCGGAGGAGGUUUAUCGAAUUGUCGGCGGAUGCCACCAAA | 7.26e-05 ± 3.4e-05
AUAAAAGCGCCUUAACUACAGAAAUGUAGUUUACGAGGAGGAGGUUUAUCGAAUUUUCGGCGGGUGCCUCCAAA | < 1e-05
AUAAAAGCGCCAGAACUACAGAAAUGUAGUUGACGAGGAGGAGGUUUAUCGAAUUUUAGGGGGAUGCUUCCAAA | 0.000169 ± 7.3e-05
AUAAAAGCGCCAGAAGUACAGAAAUGUAGUUGACGAGGAGGAGUUUUAUCUAAUUUUCGGUGGAUGCCUCCAAA | < 1e-05

Variants of: B1
Experiment: self-cleavage kobs at 2500 uM GlcN6P; higher = faster cleavage; RNA array
Conditions: with glucosamine-6-phosphate
Outline: as §1

Variant | self-cleavage kobs at 2500 uM GlcN6P [s⁻¹]
AUAAAAGUGCCAGCACUACAGAAAUGUAGUUAACGAGGAGGAGGUUUAUCGAAUUUUCGGCGGAUGCCUCCAAA | < 1e-05
AUAAAAGCGCCAGAACUACAGAAAUGUAGUUGACGAGGAGGAACUUUAUCGAAUUUUCGGCGGAUGACUACAAA | < 1e-05
AUAAAAGCGCCAGAACUACAGAAAUGUAGUUGACGAGAAGGAGCUUUAUCGAAUUUUCGGCGGAUGUCUCAAAA | < 1e-05
AUAAAAGCGCCAGAACUACAGAAAUGUAGUUGACGAGGCGGAGGUUUAUCGAAUUCUCGGCGGAUGCCUCCAAA | 0.000456 ± 0.00015
AUAAAAGCGCCAGAACUACAGAAAUGUAGUUGACGAGGAGGAGGUUUAUCGGAUUUUCGGGGGAUGCCACCAAA | 5.25e-05 ± 2.2e-05
AUAAAAUCGCCUGAACUACAGAAAUGUAGUUGACGAGGAUGAGGUUUAUCGAAUCUUCGGCGGAUGCCUCAAAA | < 1e-05
AUAAAAGCGCCAGAACUACAGAAAUGUAGUUGACGAAGAGGAGGUUUAUCGAAUUUUCGGAGGAUGCCUUCAAA | < 1e-05
AUAAAAGCGCCAGAACUACAGAAAUGUAGUUGACGACGGGGAGGAUUAACGAAUUUUCGGCGGAUGCCUCCAAA | < 1e-05
AUAAAAGCGCCAGAACUACAGAAAUGUAGGUGACGAGGAAGAGGUUUAUCGAAUUGUCGGCGGAUGCCUCCAAA | 0.00032 ± 7.3e-05
AUAAAAGCGCCAGAACUACAGAAAUGUAGUUGACGAGGAGGAGGUGUAUCUAAUUUUCGGCGGAUGCCUCUAAA | < 1e-05
AUAAAAGCGCCAGAAUUACAGAAAUGUAGUUUAGGAGGAGGAGGUUUAUCGACUUUUCGGCGGAUGCCUCCAAA | < 1e-05
AUAAAGGCGCCAGAAGUACAGAAAUGUAGUUAACGAGGAGGAGGUUUAUCGAAUUUUCGGCGGAUGCCUCCAAA | < 1e-05
AUAAAAGCGCGAGAACUACAGAAAUGUAGAUGCCGAGGAGGAGGUUUAUCGAAUUUUCGGCGGAUGCCUCCAAA | < 1e-05
AUAAAUGCGCCAGAACUACAGAAAUGUAGUUGACGAGGAGGAGGUUUAUCGAAUUUUCGGGGGAUGACUCCAAA | 0.00149 ± 0.00065
AUAAAAGCGCCAAAACUACAGAAAUGUAGUUGACGAGGAGGAGGUUUAUCGAACUUUCGGCGGAUGCCUUCAAA | 0.000291 ± 9.6e-05
AUAAAAGCGCCAGAACUACAGAAAUGUAGUUGACGAAGAGGAGGUUUAUCGAACUUUCGGCGGAUGCCUUCAAA | 0.00117 ± 0.00025
AUAAAAGCGCCAGAACUACAGAAAUGUAGUUGACGAGGAGGUGCUUUAUCGCAUUUGCGGCGGAAGCCCCCAAA | < 1e-05
AUAAAAGCUCCAGAACUACAGAAAUGUACUUGACGAGGAGAAGGUUUAUCGAAUUUUCGGCGGAUGCCUCCAAA | < 1e-05
AUAAAAGCGCCAGAAGUACAGAAAUGUAGUUGACGAGGAGGAGUUUUAUCUAAUUUUCGGUGGAUGCCUCCAAA | < 1e-05

Variants of: B1
Experiment: self-cleavage kobs at 10000 uM GlcN6P; higher = faster cleavage; RNA array
Conditions: with glucosamine-6-phosphate
Outline: as §1

Variant | self-cleavage kobs at 10000 uM GlcN6P [s⁻¹]
AUAAAAGCGCCAGAACUACAGAAAUGUAGUUGACGAGGCGGAGGUUUAUCGAAUUCUCGGCGGAUGCCUCCAAA | 0.00101 ± 0.00021
AUAAAAGGGCUAGAUCUACAGAAAUGUACUUGACGAGGAGUAGGUUUAUCGAAUUUUCGGCGGAUGCCUCCAAA | < 1e-05
AUAAAAGCGCCAGAACUACAGAAAUGUAGUUGACGAAGAGGAGGUUUAUCGAAUUUUCGGAGGAUGCCUUCAAA | < 1e-05
AUAAAAGCGCCAGACCUACAGAAAUGUAGUCGGCGAGAAGGAGGUUUAUCGAAUUUUCGGCGGAUGCCUCCAAA | < 1e-05
AUAAAAGCUCCAGAACUACAGAAAUGUACUUGACGAGGAGAAGGUUUAUCGAAUUUUCGGCGGAUGCCUCCAAA | < 1e-05
